Substrate in series [1]: O=CC(=O)O
Briefly: purified protein. The series is classed as biochemical, Saccharomyces cerevisiae. The note with it: 0.25 mM NADPH, 50 mM potassium phosphate pH 7.4, 30 C, substrate 0-40 mM.

Substrate in series [2]: O=C(O)C(=O)CO
The series is described as follows: purified protein. The series is classed as biochemical, Saccharomyces cerevisiae. The note with it: 0.25 mM NADPH, 50 mM potassium phosphate pH 7.4, 30 C, substrate 0-40 mM.

These results are taken from PMC6945034, “A Genetic Screen To Identify Genes Influencing the Secondary Redox Couple NADPH/NADP^+ in the Yeast Saccharomyces cerevisiae” (G3: Genes|Genomes|Genetics, 2019).

B1: Gor1p (Saccharomyces cerevisiae S288C) (protein)
chain: MSKKPIVLKLGKDAFGDQAWGELEKIADVITIPESTTREQFLREVKDPQNKLSQVQVITRTARSVKNTGRFDEELALALPSSVVAVCHTGAGYDQIDVEPFKKRHIQVANVPDLVSNATADTHVFLLLGALRNFGIGNRRLIEGNWPEAGPACGSPFGYDPEGKTVGILGLGRIGRCILERLKPFGFENFIYHNRHQLPSEEEHGCEYVGFEEFLKRSDIVSVNVPLNHNTHHLINAETIEKMKDGVVIVNTARGAVIDEQAMTDALRSGKIRSAGLDVFEYEPKISKELLSMSQVLGLPHMGTHSVETRKKMEELVVENAKNVILTGKVLTIVPELQNEDWPNESKPLV
notes: C-terminal 6xHis tag, tag cut not mentioned, expressed in E. coli BL21(DE3), Ni-NTA purified
Broadly, the Km is the concentration of substrate that gives half-maximal velocity. Turning to B1, the Km came to 8.4 mM in “purified protein [1]” and 22.7 mM in the series “purified protein [2]”.
